Target: human plasma fibronectin (human)
Sequence (P02751 other isoform, or with tags, fused parts or gaps): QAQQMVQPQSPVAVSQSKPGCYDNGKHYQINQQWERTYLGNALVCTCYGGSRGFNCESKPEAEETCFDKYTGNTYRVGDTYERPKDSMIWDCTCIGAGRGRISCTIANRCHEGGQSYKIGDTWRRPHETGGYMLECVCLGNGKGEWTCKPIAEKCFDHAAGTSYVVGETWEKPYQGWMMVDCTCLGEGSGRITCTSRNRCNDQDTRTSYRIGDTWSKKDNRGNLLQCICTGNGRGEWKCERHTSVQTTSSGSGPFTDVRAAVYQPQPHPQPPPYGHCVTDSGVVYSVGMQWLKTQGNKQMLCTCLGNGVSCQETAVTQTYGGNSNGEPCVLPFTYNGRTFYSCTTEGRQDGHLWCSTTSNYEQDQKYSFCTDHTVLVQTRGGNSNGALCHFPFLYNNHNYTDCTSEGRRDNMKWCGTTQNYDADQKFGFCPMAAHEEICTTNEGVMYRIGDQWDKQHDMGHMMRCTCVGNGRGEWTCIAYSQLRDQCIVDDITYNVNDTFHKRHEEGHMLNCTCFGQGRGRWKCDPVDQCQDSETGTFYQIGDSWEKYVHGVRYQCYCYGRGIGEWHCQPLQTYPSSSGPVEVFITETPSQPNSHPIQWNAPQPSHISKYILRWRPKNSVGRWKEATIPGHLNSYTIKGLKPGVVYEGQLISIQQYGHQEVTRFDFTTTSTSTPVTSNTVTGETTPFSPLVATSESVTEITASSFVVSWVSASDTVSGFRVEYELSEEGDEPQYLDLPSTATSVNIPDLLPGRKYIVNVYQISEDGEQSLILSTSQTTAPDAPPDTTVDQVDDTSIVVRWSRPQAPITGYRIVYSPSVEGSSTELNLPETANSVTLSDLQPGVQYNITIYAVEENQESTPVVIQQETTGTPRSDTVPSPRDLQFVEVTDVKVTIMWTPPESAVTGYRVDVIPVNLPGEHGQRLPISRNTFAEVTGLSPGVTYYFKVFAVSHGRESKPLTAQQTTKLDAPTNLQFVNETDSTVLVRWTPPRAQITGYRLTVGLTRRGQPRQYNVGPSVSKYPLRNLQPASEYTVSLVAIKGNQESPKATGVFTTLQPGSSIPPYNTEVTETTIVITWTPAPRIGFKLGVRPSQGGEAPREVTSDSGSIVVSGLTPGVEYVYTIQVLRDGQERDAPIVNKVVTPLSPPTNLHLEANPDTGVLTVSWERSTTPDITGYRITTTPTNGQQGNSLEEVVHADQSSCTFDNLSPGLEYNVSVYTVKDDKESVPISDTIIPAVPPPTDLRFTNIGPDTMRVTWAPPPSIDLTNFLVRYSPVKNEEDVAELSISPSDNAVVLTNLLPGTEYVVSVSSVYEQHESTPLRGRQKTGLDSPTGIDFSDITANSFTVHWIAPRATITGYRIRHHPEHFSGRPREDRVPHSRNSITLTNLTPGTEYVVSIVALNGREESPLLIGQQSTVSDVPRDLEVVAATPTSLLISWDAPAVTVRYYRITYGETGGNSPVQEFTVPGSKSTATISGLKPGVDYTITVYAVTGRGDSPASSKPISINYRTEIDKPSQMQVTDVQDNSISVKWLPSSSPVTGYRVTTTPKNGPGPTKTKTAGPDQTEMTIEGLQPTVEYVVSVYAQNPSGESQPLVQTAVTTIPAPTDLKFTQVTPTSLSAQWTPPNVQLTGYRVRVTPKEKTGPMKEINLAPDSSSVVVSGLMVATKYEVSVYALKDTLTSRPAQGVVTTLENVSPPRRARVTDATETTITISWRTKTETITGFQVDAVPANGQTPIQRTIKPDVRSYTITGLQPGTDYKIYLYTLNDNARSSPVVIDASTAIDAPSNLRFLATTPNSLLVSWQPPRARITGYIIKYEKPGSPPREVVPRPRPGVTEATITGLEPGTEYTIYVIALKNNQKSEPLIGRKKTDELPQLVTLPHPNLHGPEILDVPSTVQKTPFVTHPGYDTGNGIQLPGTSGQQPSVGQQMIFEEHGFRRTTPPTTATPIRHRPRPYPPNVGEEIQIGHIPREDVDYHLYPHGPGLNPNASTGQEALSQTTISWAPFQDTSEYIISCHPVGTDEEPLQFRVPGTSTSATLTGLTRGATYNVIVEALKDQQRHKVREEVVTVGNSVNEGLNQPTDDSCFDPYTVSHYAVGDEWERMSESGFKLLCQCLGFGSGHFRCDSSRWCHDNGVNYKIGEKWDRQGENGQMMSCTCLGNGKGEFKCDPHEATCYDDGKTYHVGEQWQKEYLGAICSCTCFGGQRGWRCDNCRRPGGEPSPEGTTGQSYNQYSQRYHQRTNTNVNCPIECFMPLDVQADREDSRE

Kd: < 50 nM
B1: recombinant embigin extracellular domain GST-fusion protein (EMB-GST) (domain or fragment)
chain: DGSAPDSPFTSPPLREEIMANNFSLESHNISLTEHSSMPVEKNITLERPSNVNLTCQFTTSGDLNAVNVTWKKDGEQLENNYLVSATGSTLYTQYRFTIINSKQMGSYSCFFREEKEQRGTFNFKVPELHGKNKPLISYVGDSTVLTCKCQNCFPLNWTWYSSNGSVKVPVGVQMNKYVINGTYANETKLKITQLLEEDGESYWCRALFQLGESEEHIELVVLSYLVP

Reference: publication PMC9616737 (2022)
